According to IntAct's records for PubMed 31515488:

B1: GRIP and coiled-coil domain-containing protein 1 (Homo sapiens), Q96CN9 (parent)
chain: MEKFGMNFGGGPSKKDLLETIETQKKQLLQYQARLKDVVRAYKSLLKEKEALEASIKVLSVSHEADVGLAGVQLPGLTFPDSVDDRCSTHSEDSTGTATSLDTAASLTSTKGEFGVEDDRPARGPPPPKSEEASWSESGVSSSSGDGPFAGGEVDKRLHQLKTQLATLTSSLATVTQEKSRMEASYLADKKKMKQDLEDASNKAEEERARLEGELKGLQEQIAETKARLITQQHDRAQEQSDHALMLRELQKLLQEERTQRQDLELRLEETREALAGRAYAAEQMEGFELQTKQLTREVEELKSELQAIRDEKNQPDPRLQELQEEAARLKSHFQAQLQQEMRKTALAEDQLRQQSQVEEQRVAALENQISEVSELLGTYEKAKQKDQLAIQKLKERILQLDLENKTLALAASSRSPLDSHGEESSLDVNVLKDKMEKLKRLLQVAARKSQVTLDVEKLCDLEIMPSSEAADGEKATALYYQQELKQLKEEFERYKMRAQVVLKSKNTKDGNLGKELEAAQEQLAELKEKYISLRLSCEELEHQHQQEADDWKQELARLQQLHRQELERCQLDFRDRTLKLEEELHKQRDRALAVLTEKDLELEQLRSVALASGLPGRRSPVGGGGPGDPADTSSSDSLTQALQLAAANEPTFFLYAEQLARKEVEITSLRKQKHRLEVEVHQLQDRLLEEGERHREEVAALQSHIEKNIRDQSREGANLEYLKNIIYRFLTLPDSLGRQQTLTAILTILHFSPEEKQVIMRLPTSASWWPSGKR
partner: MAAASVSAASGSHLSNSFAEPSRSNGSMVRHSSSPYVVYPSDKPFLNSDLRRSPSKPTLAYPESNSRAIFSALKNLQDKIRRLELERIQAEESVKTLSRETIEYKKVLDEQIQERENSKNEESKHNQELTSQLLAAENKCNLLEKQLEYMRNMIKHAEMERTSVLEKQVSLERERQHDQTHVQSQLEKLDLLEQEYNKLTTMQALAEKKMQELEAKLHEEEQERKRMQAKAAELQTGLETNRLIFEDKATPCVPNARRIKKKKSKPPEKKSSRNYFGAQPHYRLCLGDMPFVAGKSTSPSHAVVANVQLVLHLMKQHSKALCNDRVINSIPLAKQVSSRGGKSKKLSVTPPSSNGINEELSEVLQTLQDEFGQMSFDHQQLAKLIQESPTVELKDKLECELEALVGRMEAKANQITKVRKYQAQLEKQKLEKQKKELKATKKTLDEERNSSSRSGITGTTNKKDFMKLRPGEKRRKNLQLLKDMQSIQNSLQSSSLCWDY
B2: Protein LDOC1 (Homo sapiens), O95751 (parent)
chain: MVDELVLLLHALLMRHRALSIENSQLMEQLRLLVCERASLLRQVRPPSCPVPFPETFNGESSRLPEFIVQTASYMLVNENRFCNDAMKVAFLISLLTGEAEEWVVPYIEMDSPILGDYRAFLDEMKQCFGWDDDEDDDDEEEEDDY
partner: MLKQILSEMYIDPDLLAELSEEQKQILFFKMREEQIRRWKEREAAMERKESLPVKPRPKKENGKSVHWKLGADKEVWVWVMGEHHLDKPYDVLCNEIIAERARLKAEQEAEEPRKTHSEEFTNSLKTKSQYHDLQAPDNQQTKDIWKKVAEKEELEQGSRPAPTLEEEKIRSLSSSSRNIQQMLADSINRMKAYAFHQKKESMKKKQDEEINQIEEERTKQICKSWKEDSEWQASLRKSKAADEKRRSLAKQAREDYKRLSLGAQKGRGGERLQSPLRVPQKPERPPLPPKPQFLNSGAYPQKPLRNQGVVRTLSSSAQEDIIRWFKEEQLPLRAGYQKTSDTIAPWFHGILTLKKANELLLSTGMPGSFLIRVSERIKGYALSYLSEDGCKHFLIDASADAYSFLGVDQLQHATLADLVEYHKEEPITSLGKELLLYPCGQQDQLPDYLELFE
B3: Fas-activated serine/threonine kinase (Homo sapiens), Q14296-1 (parent)
chain: MRRPRGEPGPRAPRPTEGATCAGPGESWSPSPNSMLRVLLSAQTSPARLSGLLLIPPVQPCCLGPSKWGDRPVGGGPSAGPVQGLQRLLEQAKSPGELLRWLGQNPSKVRAHHYSVALRRLGQLLGSRPRPPPVEQVTLQDLSQLIIRNCPSFDIHTIHVCLHLAVLLGFPSDGPLVCALEQERRLRLPPKPPPPLQPLLRGGQGLEAALSCPRFLRYPRQHLISSLAEARPEELTPHVMVLLAQHLARHRLREPQLLEAIAHFLVVQETQLSSKVVQKLVLPFGRLNYLPLEQQFMPCLERILAREAGVAPLATVNILMSLCQLRCLPFRALHFVFSPGFINYISGTPHALIVRRYLSLLDTAVELELPGYRGPRLPRRQQVPIFPQPLITDRARCKYSHKDIVAEGLRQLLGEEKYRQDLTVPPGYCTDFLLCASSSGAVLPVRTQDPFLPYPPRSCPQGQAASSATTRDPAQRVVLVLRERWHFCRDGRVLLGSRALRERHLGLMGYQLLPLPFEELESQRGLPQLKSYLRQKLQALGLRWGPEGG
B4: Trichoplein keratin filament-binding protein (Homo sapiens), Q9BT92 (parent)
chain: MALPTLPSYWCSQQRLNQQLARQREQEARLRQQWEQNSRYFRMSDICSSKQAEWSSKTSYQRSMHAYQREKMKEEKRRSLEARREKLRQLMQEEQDLLARELEELRLSMNLQERRIREQHGKLKSAKEEQRKLIAEQLLYEHWKKNNPKLREMELDLHQKHVVNSWEMQKEEKKQQEATAEQENKRYENEYERARREALERMKAEEERRQLEDKLQAEALLQQMEELKLKEVEATKLKKEQENLLKQRWELERLEEERKQMEAFRQKAELGRFLRHQYNAQLSRRTQQIQEELEADRRILQALLEKEDESQRLHLARREQVMADVAWMKQAIEEQLQLERAREAELQMLLREEAKEMWEKREAEWARERSARDRLMSEVLTGRQQQIQEKIEQNRRAQEESLKHREQLIRNLEEVRELARREKEESEKLKSARKQELEAQVAERRLQAWEADQQEEEEEEEARRVEQLSDALLQQEAETMAEQGYRPKPYGHPKIAWN
partner: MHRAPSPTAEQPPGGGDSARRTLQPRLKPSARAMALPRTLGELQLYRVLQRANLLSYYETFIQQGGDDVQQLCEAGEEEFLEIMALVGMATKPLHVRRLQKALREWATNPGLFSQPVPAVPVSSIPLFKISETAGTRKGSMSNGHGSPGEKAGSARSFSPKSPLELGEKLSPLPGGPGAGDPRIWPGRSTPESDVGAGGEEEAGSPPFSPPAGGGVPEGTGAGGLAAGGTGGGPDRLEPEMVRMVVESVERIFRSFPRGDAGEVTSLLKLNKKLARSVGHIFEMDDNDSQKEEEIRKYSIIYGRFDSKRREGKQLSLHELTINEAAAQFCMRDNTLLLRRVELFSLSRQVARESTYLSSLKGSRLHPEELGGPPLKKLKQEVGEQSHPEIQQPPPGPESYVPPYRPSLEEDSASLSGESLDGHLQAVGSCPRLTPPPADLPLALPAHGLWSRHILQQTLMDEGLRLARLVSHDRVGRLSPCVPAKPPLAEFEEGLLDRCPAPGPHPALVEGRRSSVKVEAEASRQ
B5: NADPH oxidase activator 1 (Homo sapiens), Q86UR1 (parent)
chain: MASLGDLVRAWHLGAQAVDRGDWARALHLFSGVPAPPARLCFNAGCVHLLAGDPEAALRAFDQAVTKDTCMAVGFFQRGVANFQLARFQEALSDFWLALEQLRGHAAIDYTQLGLRFKLQAWEVLHNVASAQCQLGLWTEAASSLREAMSKWPEGSLNGLDSALDQVQRRGSLPPRQVPRGEVFRPHRWHLKHLEPVDFLGKAKVVASAIPDDQGWGVRPQQPQGPGANHDARSLIMDSPRAGTHQGPLDAETEVGADRCTSTAYQEQRPQVEQVGKQAPLSPGLPAMGGPGPGPCEDPAGAGGAGAGGSEPLVTVTVQCAFTVALRARRGADLSSLRALLGQALPHQAQLGQLSYLAPGEDGHWVPIPEEESLQRAWQDAAACPRGLQLQCRGAGGRPVLYQVVAQHSYSAQGPEDLGFRQGDTVDVLCEVDQAWLEGHCDGRIGIFPKCFVVPAGPRMSGAPGRLPRSQQGDQP

Variants of: B1
Details: with cep57_human CEP57, Q86XR8

Row | Variant | effect of a mutation on the interaction
1 | A274T | with no effect

Variants of: B2
Details: with sh24a_human SH2D4A

Row | Variant | effect of a mutation on the interaction
2 | L12H | disrupting interaction strength

Variants of: B3
Details: with wipf1_human WIPF1, O43516
Chain of wipf1_human WIPF1, O43516 (O43516 whole entry): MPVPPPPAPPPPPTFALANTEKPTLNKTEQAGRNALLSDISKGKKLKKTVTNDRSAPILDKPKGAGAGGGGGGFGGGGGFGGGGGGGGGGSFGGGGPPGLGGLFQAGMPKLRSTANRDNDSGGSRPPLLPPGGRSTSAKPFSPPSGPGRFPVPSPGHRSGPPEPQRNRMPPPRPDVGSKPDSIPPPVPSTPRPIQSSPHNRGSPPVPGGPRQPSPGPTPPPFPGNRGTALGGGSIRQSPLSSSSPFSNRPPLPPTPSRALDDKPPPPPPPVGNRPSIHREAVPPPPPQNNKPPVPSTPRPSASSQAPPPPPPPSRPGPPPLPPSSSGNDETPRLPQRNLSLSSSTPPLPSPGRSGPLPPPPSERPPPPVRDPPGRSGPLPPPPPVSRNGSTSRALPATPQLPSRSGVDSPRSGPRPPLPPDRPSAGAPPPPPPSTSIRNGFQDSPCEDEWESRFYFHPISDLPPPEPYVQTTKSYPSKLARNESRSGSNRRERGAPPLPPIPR

Row | Variant | effect of a mutation on the interaction
3 | V424L | disrupting interaction strength

Variants of: B3
Details: with mdfi_human MDFI

Row | Variant | effect of a mutation on the interaction
4 | V424L | disrupting interaction strength

Variants of: B4
Details: with nab2_human NAB2, Q15742

Row | Variant | effect of a mutation on the interaction
5 | K127R | with no effect

Variants of: B5
Details: with rim3a_human RIMBP3, Q9UFD9
Chain of rim3a_human RIMBP3, Q9UFD9 (Q9UFD9 whole entry): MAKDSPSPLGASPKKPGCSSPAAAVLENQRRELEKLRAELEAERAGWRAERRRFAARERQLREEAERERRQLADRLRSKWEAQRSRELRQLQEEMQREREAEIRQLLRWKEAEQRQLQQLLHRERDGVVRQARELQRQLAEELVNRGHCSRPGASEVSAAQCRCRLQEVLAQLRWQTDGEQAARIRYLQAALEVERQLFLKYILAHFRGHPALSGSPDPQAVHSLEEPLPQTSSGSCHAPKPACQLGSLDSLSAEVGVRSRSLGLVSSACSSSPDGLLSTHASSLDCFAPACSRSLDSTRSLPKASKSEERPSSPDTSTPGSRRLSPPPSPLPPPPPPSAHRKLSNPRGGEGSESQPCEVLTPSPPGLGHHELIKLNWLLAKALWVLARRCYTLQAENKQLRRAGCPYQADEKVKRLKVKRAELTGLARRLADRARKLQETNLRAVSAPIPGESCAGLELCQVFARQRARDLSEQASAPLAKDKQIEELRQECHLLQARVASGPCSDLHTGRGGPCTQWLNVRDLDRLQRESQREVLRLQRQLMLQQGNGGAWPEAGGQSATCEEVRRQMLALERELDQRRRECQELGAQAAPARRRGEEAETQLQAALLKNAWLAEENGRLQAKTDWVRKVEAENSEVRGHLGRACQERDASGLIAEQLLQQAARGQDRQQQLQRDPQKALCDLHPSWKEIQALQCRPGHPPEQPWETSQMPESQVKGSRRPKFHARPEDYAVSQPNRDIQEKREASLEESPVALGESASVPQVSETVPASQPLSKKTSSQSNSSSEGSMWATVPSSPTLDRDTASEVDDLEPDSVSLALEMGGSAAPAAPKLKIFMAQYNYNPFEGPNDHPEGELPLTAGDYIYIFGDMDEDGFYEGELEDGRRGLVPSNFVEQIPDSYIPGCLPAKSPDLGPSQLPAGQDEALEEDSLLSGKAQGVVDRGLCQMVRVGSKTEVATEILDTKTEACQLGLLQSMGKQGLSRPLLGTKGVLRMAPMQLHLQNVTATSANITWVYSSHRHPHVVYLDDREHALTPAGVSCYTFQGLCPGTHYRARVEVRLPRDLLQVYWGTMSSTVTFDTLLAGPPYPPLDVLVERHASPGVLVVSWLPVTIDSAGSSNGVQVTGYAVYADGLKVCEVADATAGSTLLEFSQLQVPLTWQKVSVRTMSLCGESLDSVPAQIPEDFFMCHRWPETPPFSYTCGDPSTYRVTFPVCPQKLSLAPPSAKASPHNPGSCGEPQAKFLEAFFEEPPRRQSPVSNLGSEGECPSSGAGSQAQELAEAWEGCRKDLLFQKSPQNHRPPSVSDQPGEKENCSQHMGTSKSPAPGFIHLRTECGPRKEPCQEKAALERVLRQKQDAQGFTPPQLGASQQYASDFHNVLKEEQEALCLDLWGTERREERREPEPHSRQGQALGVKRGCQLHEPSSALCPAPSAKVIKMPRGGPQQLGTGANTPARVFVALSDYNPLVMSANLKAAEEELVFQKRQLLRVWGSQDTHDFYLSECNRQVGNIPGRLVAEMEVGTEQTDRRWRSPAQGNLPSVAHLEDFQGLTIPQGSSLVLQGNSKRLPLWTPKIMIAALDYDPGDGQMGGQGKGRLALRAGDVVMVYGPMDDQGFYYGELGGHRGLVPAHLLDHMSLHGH

Row | Variant | effect of a mutation on the interaction
6 | D6E | with no effect
